Values quoted from earlier work as cited in article PMC4465046.

Biological target: HIV-1 protease (Human immunodeficiency virus 1) (UniProt O93215)

For HIV-1 protease (from UniProt O93215), which Kd is on record?
The Kd was 6.8 nM.
